Assay results from the supplement of paper PMC12042874.
± gives the uncertainty stated by the source.

Assay: amyloid nucleation score (Sup35N fusion, yeast selection) (log enrichment); library NNK1; higher = more nucleation; inactive = no reads after selection
Summary of the method: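 In psi-negative yeast, Sup35N fusions carrying peptides of 20 random codons were induced with 100 μM copper sulfate for 24 hours. The cells then grew 7 days at 30°C on medium lacking adenine and uracil, and plasmid inserts from input and output were Illumina-sequenced, excluding sequences with under 100 input reads. Nucleation score is the DiMSum log enrichment of output over input reads, centred on the mode score of non-aggregating sequences.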

| Substance | amyloid nucleation score |
| --- | --- |
| KCMTIAWIQSSVSAILLLNC | -0.181 ± 1.4 |
| KCRKASMSSPILDLCTRMRC | -1.18 ± 1.9 |
| KDCDMIGDSVYGSKFVTREM | 0.503 ± 0.34 |
| KDQKISVIMFILMRVPLY | 0.546 ± 0.45 |
| KDVFY | -0.294 ± 0.5 |
| KDVVISVGGMSVVLFSSRPH | 4.52 ± 0.091 |
| KEDAIIWVYNKSVSMRIFVQ | -0.104 ± 0.46 |
| KEHRPWGCW | inactive |
| KEKWRMQICAPGKS | -1.24 ± 0.81 |
| KERIFPLTTEAMKLERKA | -0.341 ± 0.57 |
| KFFCCN | 7.776 ± 0.076 |
| KFIVMIE | 0.386 ± 0.22 |
| KFIVWTFWSYLLTATRM | 0.157 ± 0.79 |
| KFLLLSCYIEWRLMSVLAKA | 0.968 ± 0.69 |
| KFNPLLITKFSAWECGLVVG | -1.55 ± 1.9 |
| KFRRW | -0.832 ± 0.56 |
| KFTVVVAVSCRRLPSNICRI | 0.141 ± 0.53 |
| KGDNIPLGAPSREMLTVYRA | -0.146 ± 0.5 |
| KGELLGDWGAIYHWCF | inactive |
| KGKPYFAEMLHIMSFVWSSD | 1.3 ± 0.6 |
| KGKTVVSEDGEQCHLGCSRT | -0.079 ± 0.33 |
| KGWKTVVHCRDYGQVNNFGS | 2.22 ± 0.14 |

| Substance | amyloid nucleation score |
| --- | --- |
| KGYSSTYGRPSKHYCC | inactive |
| KHCDYHRWVEITSKRLFIGG | 0.134 ± 0.3 |
| KHDIIESQPQVVHNNRCVWL | inactive |
| KHQSHFLVV | 0.872 ± 0.45 |
| KIALTLIRRLQFLNDSVKPQ | 1.71 ± 0.17 |
| KIATKGNIF | -0.951 ± 0.53 |
| KIFDMRVESVYWVGRSPSKV | 0.706 ± 0.17 |
| KIIPRRRKSFMLNTFKYPHD | 1.62 ± 0.52 |
| KIPKSVYVLTSIEGSAFNIK | -0.234 ± 1.6 |
| KISITSTIVFS | 1.32 ± 0.33 |
| KISYADF | 0.646 ± 1.1 |
| KITIGINS | 0.4 ± 0.33 |
| KIVRSRWFIICACVKLRTRL | 0.427 ± 0.36 |
| KKFVNFWVMSLYLNSDYSP | inactive |
| KKKRRLSSWYSHPVPSSGLL | 0.488 ± 1 |
| KKNIWPLYSLRVRLYELAIS | -0.965 ± 1.7 |
| KKVINPYFFGCTGCNNTQRK | -0.149 ± 0.31 |
| KLDMGVLPFANWSVDT | -0.032 ± 0.28 |
| KLETYYGAFNFNWFLSLNGD | 5.08 ± 0.061 |
| KLGPVTYLYP | -0.03 ± 0.72 |
| KLHDGFL | -0.96 ± 2.7 |
| KLMLLLSNSMNQRSDYPRFQ | -0.327 ± 0.44 |

| Substance | amyloid nucleation score |
| --- | --- |
| KLREFAVLTLESGSFSVYCW | -1.14 ± 1.2 |
| KLRRDSFVFQVKFHLNKGML | -0.384 ± 0.46 |
| KLRSGCLDYIVIDLWTF | -0.439 ± 0.39 |
| KLTHVNDLLTMVVNVSRAQG | -0.004 ± 1.4 |
| KLYGVSCAPLSEDHCLGKAA | -0.339 ± 0.48 |
| KMECVVRVSGCRDKVDWTAG | 2.53 ± 0.2 |
| KMQPQMTCFS | -0.435 ± 0.53 |
| KMRILWVV | 0.945 ± 0.51 |
| KMTCCSGSINDGYLYCVYNV | 6.56 ± 0.071 |
| KNALWVRTVKNMCVLWDTGF | -1.08 ± 1.4 |
| KNAVSSGRSGKITRR | 0.231 ± 1.4 |
| KNAYHFRG | 0.113 ± 0.97 |
| KNFFPFAFVFL | 7.083 ± 0.053 |
| KNVMVFVQDWIVVSCMRVEK | 2.39 ± 0.14 |
| KNYDGCHMSYVGSRGWITSL | 0.215 ± 1.4 |
| KPGTNSYGCVYNHGFMGCTK | -0.245 ± 0.45 |
| KPWLVHMHGSSYNGRADAEV | 0.811 ± 0.61 |
| KQTLLYHSSGSCCWELVSWW | 4.39 ± 0.097 |
| KQYPI | -1.33 ± 2.4 |
| KRFLSYWRFSWGWYIAQACG | -0.68 ± 1.4 |
| KRFSKDLLMAESDLCIGCMM | -0.817 ± 2.4 |
| KRPSMM | -0.18 ± 0.3 |

| Substance | amyloid nucleation score |
| --- | --- |
| KSDSVLAGY | 5.039 ± 0.05 |
| KSGSKCRLRGSDNSNRLSVM | -0.335 ± 1.5 |
| KSMECSFAWLWDSREFIFCH | -1.67 ± 1.4 |
| KSRGRKSSGDFPIRGD | 4.84 ± 0.062 |
| KSTPEYRSKDSMCELHKDMC | inactive |
| KSTRWQIRSDALDVSERCFS | 1 ± 0.76 |
| KSTTLLVGSRSCGAHLQRLH | 0.462 ± 0.37 |
| KSVVLHWYAYSMLYPLWNLV | 0.511 ± 0.53 |
| KTPLYLPYLYFSIRLMCYWY | -0.47 ± 0.21 |
| KTSVL | -0.616 ± 0.39 |
| KVHKLIDNYMLRSRWY | -0.139 ± 0.9 |
| KVLELYRILYRREHNFWVEV | -0.317 ± 1.6 |
| KVLMTAGFYVVLRALKHRTK | 1.51 ± 0.34 |
| KVNLTSCSY | -0.059 ± 0.42 |
| KVNTLCEHSSIHRPVVGNGG | 0.082 ± 0.77 |
| KVRHNVVLG | -1.19 ± 0.66 |
| KVRIQGPTNVCVVRTMCGWF | 5.98 ± 0.056 |
| KWDKVALYFDQVQITELCIY | 4.21 ± 0.091 |
| KWNCLVSCRLCELYLIPLI | 3.58 ± 0.081 |
| KWNFVHMDQKGKELNSLFSL | -0.649 ± 0.54 |
